This is an account of results in paper PMC8932525 (The Journal of Cell Biology, 2022).

Test [1] addresses nuclear pore complexes (NPCs) in endoKap-depleted digitonin-permeabilized HeLa cells (human (endogenous in HeLa)). In words: permeabilized cell assay, confocal fluorescence microscopy.
Test [2] concerns the target T1, importin-5 (Imp5) (UniProt O00410 1-1097).
T1 sequence (looked up): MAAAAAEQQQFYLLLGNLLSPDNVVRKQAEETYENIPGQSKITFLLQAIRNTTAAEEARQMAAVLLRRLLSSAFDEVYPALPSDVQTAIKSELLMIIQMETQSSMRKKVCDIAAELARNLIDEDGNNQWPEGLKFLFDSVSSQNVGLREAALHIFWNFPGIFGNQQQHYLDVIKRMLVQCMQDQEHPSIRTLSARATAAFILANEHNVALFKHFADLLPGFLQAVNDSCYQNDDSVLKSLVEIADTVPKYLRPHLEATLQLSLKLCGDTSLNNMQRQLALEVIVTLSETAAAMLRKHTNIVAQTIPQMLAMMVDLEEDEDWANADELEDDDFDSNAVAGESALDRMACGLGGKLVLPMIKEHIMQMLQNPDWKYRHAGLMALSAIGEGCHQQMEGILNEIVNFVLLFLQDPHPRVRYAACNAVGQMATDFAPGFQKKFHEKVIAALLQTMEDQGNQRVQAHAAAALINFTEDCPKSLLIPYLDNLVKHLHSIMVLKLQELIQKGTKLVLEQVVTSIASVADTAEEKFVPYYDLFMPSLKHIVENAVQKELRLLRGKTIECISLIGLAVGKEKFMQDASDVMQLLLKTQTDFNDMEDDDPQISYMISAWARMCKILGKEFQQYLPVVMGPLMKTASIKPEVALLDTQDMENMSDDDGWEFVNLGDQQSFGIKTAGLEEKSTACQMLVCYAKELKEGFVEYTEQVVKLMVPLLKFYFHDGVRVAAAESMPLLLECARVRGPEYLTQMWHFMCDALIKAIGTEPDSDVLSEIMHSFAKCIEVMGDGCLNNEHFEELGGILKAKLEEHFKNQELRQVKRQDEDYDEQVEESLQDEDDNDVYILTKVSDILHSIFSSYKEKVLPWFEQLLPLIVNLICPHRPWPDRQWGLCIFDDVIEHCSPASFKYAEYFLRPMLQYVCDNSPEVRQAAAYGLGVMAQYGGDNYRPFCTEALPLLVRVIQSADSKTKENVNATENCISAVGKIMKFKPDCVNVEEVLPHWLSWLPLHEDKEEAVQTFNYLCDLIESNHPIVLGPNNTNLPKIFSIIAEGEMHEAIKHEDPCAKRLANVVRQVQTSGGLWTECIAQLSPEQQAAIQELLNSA
In words: SPR.

The target of test [3] is CRM1 (exportin 1/chromosomal maintenance 1) (UniProt O14980 1-1071). The test can be described thus: SPR. On the technique in general: In SPR one partner is held on a chip, and binding of the other changes the refractive index at the surface.

By Kd is commonly meant a measure of binding affinity in units of concentration. A low value points to tighter binding.

Sequence of CRM1 (exportin 1/chromosomal maintenance 1) (O14980 whole entry): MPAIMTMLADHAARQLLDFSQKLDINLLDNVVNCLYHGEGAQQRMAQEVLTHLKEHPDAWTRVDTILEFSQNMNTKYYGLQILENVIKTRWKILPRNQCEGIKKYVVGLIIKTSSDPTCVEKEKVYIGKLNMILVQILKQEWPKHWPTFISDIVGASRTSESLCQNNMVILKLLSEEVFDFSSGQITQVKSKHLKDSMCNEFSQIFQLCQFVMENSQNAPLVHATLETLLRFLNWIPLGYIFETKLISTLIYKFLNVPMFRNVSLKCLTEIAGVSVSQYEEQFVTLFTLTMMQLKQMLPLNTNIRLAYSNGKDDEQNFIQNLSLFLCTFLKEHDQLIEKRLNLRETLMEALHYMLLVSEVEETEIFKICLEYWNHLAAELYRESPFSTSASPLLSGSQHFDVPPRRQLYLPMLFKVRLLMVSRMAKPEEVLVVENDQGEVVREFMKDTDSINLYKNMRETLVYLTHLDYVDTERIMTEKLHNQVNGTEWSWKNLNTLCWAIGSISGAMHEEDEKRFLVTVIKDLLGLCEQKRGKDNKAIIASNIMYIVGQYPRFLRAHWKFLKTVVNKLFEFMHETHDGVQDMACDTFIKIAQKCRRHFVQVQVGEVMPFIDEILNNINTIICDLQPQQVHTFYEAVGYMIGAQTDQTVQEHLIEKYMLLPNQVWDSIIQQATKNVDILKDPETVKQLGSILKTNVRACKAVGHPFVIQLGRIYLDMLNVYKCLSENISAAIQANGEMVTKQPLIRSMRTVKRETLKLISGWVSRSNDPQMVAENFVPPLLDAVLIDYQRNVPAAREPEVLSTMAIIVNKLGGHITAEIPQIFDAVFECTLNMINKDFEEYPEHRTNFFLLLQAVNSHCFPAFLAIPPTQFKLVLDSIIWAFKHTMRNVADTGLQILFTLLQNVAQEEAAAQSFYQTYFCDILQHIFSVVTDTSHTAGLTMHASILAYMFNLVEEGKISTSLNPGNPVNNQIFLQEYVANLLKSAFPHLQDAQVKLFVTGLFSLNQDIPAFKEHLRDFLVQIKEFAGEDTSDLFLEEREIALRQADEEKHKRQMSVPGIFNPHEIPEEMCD

As for “Kapβ1–Alexa Fluor 488 (from UniProt Q14974 1-876) (natural protein)”, in test [1], the Kd turned out to be 3100 nM and the relative occupancy with 10 µM exoImp5 came out at 72%.

Take “CRM1–Alexa Fluor 647 (from UniProt O14980 1-1071) (natural protein)”: in test [1], the K (D,NPC) in the presence of 10 µM exoKapβ1 was 2.8 µM; the Kd amounted to 500 nM; the reduction of relative occupancy from the standalone value, with 10 µM exoKapβ1 amounted to 51%; the relative occupancy with 10 µM exoImp5 came to 59%.

B1: cNup153 (cysteine-tagged FG domain of human Nup153) (domain or fragment, UniProt P49790 874-1475, looked up)
chain: CESAKPGTKSGFKGFDTSSSSSNSAASSSFKFGVSSSSSGPSQTLTSTGNFKFGDQGGFKIGVSSDSGSINPMSEGFKFSKPIGDFKFGVSSESKPEEVKKDSKNDNFKFGLSSGLSNPVSLTPFQFGVSNLGQEEKKEELPKSSSAGFSFGTGVINSTPAPANTIVTSENKSSFNLGTIETKSASVAPFTCKTSEAKKEEMPATKGGFSFGNVEPASLPSASVFVLGRTEEKQQEPVTSTSLVFGKKADNEEPKCQPVFSFGNSEQTKDENSSKSTFSFSMTKPSEKESEQPAKATFAFGAQTSTTADQGAAKPVFSFLNNSSSSSSTPATSAGGGIFGSSTSSSNPPVATFVFGQSSNPVSSSAFGNTAESSTSQSLLFSQDSKLATTSSTGTAVTPFVFGPGASSNNTTTSGFGFGATTTSSSAGSSFVFGTGPSAPSASPAFGANQTPTFGQSQGASQPNPPGFGSISSSTALFPTGSQPAPPTFGTVSSSSQPPVFGQQPSQSAFGSGTTPNSSSAFQFGSSTTNFNFTNNSPSGVFTFGANSSTPAASAQPSGSGGFPFNQSPAAFTVGSNGKNVFSSSGTSFSGRKIKTAVRRRK
On to B1, for which the binding result in test [2] is “binds”.

B2: cNup98 (cysteine-tagged FG domain of human Nup98) (domain or fragment, UniProt P52948 1-498, looked up)
chain: MFNKSFGTPFGGGTGGFGTTSTFGQNTGFGTTSGGAFGTSAFGSSNNTGGLFGNSQTKPGGLFGTSSFSQPATSTSTGFGFGTSTGTANTLFGTASTGTSLFSSQNNAFAQNKPTGFGNFGTSTSSGGLFGTTNTTSNPFGSTSGSLFGPSSFTAAPTGTTIKFNPPTGTDTMVKAGVSTNISTKHQCITAMKEYESKSLEELRLEDYQANRKGPQNQVGAGTTTGLFGSSPATSSATGLFSSSTTNSGFAYGQNKTAFGTSTTGFGTNPGGLFGQQNQQTTSLFSKPFGQATTTQNTGFSFGNTSTIGQPSTNTMGLFGVTQASQPGGLFGTATNTSTGTAFGTGTGLFGQTNTGFGAVGSTLFGNNKLTTFGSSTTSAPSFGTTSGGLFGNKPTLTLGTNTNTSNFGFGTNTSGNSIFGSKPAPGTLGTGLGAGFGTALGAGQASLFGNNQPKIGGPLGTGAFGAPGFNTTTATLGFGAPQAPVALTDPNASAAQQ
For B2, in test [2], the binding result is listed as “binds”.

B3: cNup214 (cysteine-tagged FG domain of human Nup214) (domain or fragment, UniProt P35658 1809-2090, looked up)
chain: SPGFGQGGSVFGGTSAATTTAATSGFSFCQASGFGSSNTGSVFGQAASTGGIVFGQQSSSSSGSVFGSGNTGRGGGFFSGLGGKPSQDAANKNPFSSASGGFGSTATSNTSNLFGNSGAKTFGGFASSSFGEQKPTGTFSSGGGSVASQGFGFSSPNKTGGFGAAPVFGSPPTFGGSPGFGGVPAFGSAPAFTSPLGSTGGKVFGEGTAAASAGGFGFGSSSNTTSFGTLASQNAPTFGSLSQQTSGFGTQSSGFSGFGSGTGGFSFGSNNSSVQGFGGWRS
As to B3, the Kd in test [3] is 110 ± 20 nM. Further, the binding result in test [2] is on record as “binds”.

B4: cNup62 (cysteine-tagged FG domain of human Nup62) (domain or fragment, UniProt P37198 1-240, looked up)
chain: MSGFNFGGTGAPTGGFTFGTAKTATTTPATGFSFSTSGTGGFNFGAPFQPATSTPSTGLFSLATQTPATQTTGFTFGTATLASGGTGFSLGIGASKLNLSNTAATPAMANPSGFGLGSSNLTNAISSTVTSSQGTAPTGFVFGPSTTSVAPATTSGGFSFTGGSTAQPSGFNIGSAGNSAQPTAPATLPFTPATPAATTAGATQPAAPTPTATITSTGPSLFASIATAPTSSATTGLSLC
On to B4, for which binding in test [3] was characterised by a dissociation constant (Kd) of 2860 ± 380 nM. The binding result in test [2] is on record as “binds”.
